Experimental data reported in patent publication US20200390811A1.

System: RISR-RIAD peptide with myc and ddk (FLAG) tags, expressed in T cells
Sequence (chain, as listed by the source): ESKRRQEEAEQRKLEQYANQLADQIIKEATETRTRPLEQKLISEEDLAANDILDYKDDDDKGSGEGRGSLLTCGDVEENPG

Which “phosphorylation of Csk-S364 and Lck-Y505 (blot, FIG. 2)” value does the source give for “Protein kinase A (PKA), RI regulatory subunit” here?
Its value is “RISR-RIAD expression prevented phosphorylation of Csk-S364 and Lck-Y505”.
